The text below walks through data of PMC7907217 (Biochemistry and Biophysics Reports, 2021).

Several values for one entry are separate records, joined by “and”; a condition that tells them apart may be missing. Equal values may be shown once.

Assay [1] addresses T1, 3D7 PfAMA1 (DI + DII) (Plasmodium falciparum 3D7, UniProt Q7KQK5 104-438).
T1 sequence (looked up): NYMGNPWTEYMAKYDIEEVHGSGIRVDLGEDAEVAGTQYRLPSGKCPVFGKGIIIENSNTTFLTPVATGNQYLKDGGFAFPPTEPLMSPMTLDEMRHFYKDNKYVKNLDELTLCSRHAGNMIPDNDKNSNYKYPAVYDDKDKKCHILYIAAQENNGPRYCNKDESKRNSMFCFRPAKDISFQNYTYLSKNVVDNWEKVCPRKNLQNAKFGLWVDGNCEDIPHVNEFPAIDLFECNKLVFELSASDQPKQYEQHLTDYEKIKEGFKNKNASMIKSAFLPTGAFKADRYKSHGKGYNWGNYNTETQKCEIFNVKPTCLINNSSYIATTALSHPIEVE
Briefly: ITC.

Assay [2] deals with T1, 3D7 PfAMA1 (DI + DII). Description: SPR.

Regarding DITQQAKDIGAGPVASCFTTRMSPPQQICLNSVVNTALS (peptide, UniProt Q8IKV6 2021-2059, looked up) [PfRON2ed peptide (Asp2021-Ser2059)], the dissociation constant Kd was 122 nM and 93.5 to 137 nM with 3D7 PfAMA1 (DI + DII) [1]; 21.9 ± 1.89 nM with 3D7 PfAMA1 (DI + DII) [2].
